Results from article PMC3072985.

Molecular target: Mycobacterium tuberculosis Bacterioferritin B (BfrB), full length (Mycobacterium tuberculosis H37Rv) (UniProt P9WNE5)
Assay: crystal structure; recombinant BfrB, 11 mg/ml, 20% PEG 3350, 0.1 M Tris pH 8.5, 293 K; 3.0 Å; 24 subunits in the asymmetric unit

“Mycobacterium tuberculosis Bacterioferritin B (BfrB), full length (from UniProt P9WNE5 1-181) (natural protein)” was tested, and the stoichiometry N was 24.
